{
  "source": "paper PMC4806929",
  "about": "“Two New Native β-Glucosidases from Clavispora NRRL Y-50464 Confer Its Dual Function as Cellobiose Fermenting Ethanologenic Yeast” (PLoS ONE, 2016)",
  "molecules": {"B1": {"name": "BGL2 (Clavispora sp. NRRL Y-50464) (protein)", "chain": "MTILEKVNLTTGTGFASGPCSGNTGSVPRLGIPSFCLQDGPNGVHATDFVTHYPSGLATGSTFNKALMYLKGKAIGREFRGKNVHMALAPVVGPIGLKAQGGRNWESFGADPYLQGVGGGQMVKGMQEEGVVAVVKHFIANEQEYFRQEGEHPADIVASISSDIDERTLHEVFMWPFADVVRAGCGGIVCSFNRVNGTYSCENSYLLGKMLKEELGFQGFVVSDWGAQHSGVNSALAGLDMSMPGDIYDEWLEGKSFWGSSLTKAVYNNSVSQERLDDMASRILAPFFASAGLYLPMENEVPNFSSWTLDTYGPQFPIQKTGPIVQQNKHVDVRSTFGDDIALGLAREAIILLKNEGNSLPIRKNIRKMLVAGLGAGQDPDGLNCRDGTCSNGFLTSGWGSAAVRNALTITPFQAIAQKAHLRGILVEYNHNNWNLEAIDEMQEVDMAVVVVNAASGEGHIEIDGNYGDRKNISLWHNGDELIKHVAEKCSRTVVIVNAVGPVDMEPWINHKNVVAVLFTAPLGQFGGVALAEVLFGEVNPSGKLPFTIAKKKLHYVPLVTESEDEEPHDDMKRGFYLDYRYFDKHSILPRFCFGHGLSYSEFVFSDLRIKEKNQPLQFLSPGKNYLPVTSRNKEDNRDPEEALFPENLQRQPGFIYPYLEEESLSDLDEEDFSYPPGYSTTHQSTPSTAGGGLGGNPSLWTQVYDISARVTNIGRYGGAYSVQLYIEFPNSEFISPPKILRGFDKVYLEPHLNGTVHFPILQRDLSVWNTEKAQWVIQKGVYRISIASSSEKVELYGEIDLSG"}, "B2": {"name": "BGL3 (Clavispora sp. NRRL Y-50464) (protein)", "chain": "MADIDVEKVLSELTLAEKIGLTAGVDFWHTYKVERLGVPTLRLSDGPNGVRGTKFVNGAPSACFPCGTGLASTFNKDLLYKAGRLMADEAKHKSAHVILGPTTNMQRGPLGGRGFESFSEDPHLAGMASASIVKGMQDNDIAATIKHFVCNDLEHERNSSDAIVTERALREIYLEPFRLAVKYADPKSFMTAYNKVNGEHVSQSHRILEQILREEWNWDGLVMSDWYGAYTAKESLTNGLDLEMPGPSGMRTVQNISHMVNSRELNIKYLDERVRNVLKLVKWCARSKLEERGPETTENNTPETRALLNKIASELVVLLKNNDSVLPLKKEESIAVIGPNAKFAAYCGGGSASLLSYYTTTPYDAIKEKLGHEPKYAVGCYAHQMLPGFSLSPYTKNPVTGKSGVNCKLYNDAPGTKNRRQFDEFDITMSPIILFDYRHPAIVDELFYMDITGDLTPEESGEYEFSLTVSGTAQLFIDDKLVIDNKNSQTLGTAFFGTGTIEMKQKVPLDAGKTYNVRVEFGSSKTSKLRPLSVISFGGCVSIGMCKVIDPKEEIAKAVELAKSVDKVVLLIGLNAEWESEGFDRPDMELPLLTNDLVEAVLAANPNTVVVNQSGTPVEMPWLSKANALVHAWYGGSEAGNAIANVLFGDVNPSGKLSLSWPFKNSDNPAYLNFHTERGRVLYGEDIYIGYRFYDKLQRRVAFPFGYGLSYTTYKYSDLNVTVNEEDDSLTASVTVENTGSKDGAETVQFYVAPKTSEVARPVKELKGFDKVFVKAGEKATAKVQLSLKDSASFFDEYHDKWSLEKGTYEVQVGKSSDDVELIQEFKVKESKLWSGL"}},
  "key": {"BGL2": {"molecular_target": "T1, BGL2 (Clavispora sp. NRRL Y-50464, UniProt A0A141S030)", "T1 construct": "C-terminal His tag, vector pPICZalphaA, expressed in Pichia X33; partially purified by Ni-NTA; GH3", "T1 sequence (A0A141S030 1-804)": "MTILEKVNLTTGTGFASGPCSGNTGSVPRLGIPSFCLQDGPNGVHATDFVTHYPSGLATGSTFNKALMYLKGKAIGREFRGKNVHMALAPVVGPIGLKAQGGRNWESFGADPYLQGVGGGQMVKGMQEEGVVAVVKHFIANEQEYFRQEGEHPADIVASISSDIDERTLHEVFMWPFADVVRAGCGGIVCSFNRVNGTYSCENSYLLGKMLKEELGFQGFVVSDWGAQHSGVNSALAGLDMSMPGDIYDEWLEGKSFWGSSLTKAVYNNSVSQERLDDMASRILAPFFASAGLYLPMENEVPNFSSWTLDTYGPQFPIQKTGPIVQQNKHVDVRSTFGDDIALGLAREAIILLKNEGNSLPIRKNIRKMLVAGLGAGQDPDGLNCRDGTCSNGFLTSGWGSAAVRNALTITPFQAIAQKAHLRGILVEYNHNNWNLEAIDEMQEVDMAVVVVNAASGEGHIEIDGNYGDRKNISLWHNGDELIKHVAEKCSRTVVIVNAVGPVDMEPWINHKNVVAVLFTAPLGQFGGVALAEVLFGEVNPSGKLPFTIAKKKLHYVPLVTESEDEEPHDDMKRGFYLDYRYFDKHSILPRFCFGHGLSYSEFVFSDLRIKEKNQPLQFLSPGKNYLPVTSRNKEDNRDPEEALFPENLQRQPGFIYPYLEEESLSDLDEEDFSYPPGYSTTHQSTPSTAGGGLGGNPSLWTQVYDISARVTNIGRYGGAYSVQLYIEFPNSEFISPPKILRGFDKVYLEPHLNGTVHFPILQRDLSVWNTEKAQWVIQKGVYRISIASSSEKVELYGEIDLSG", "test": "pNPG hydrolysis, absorbance at […] nm", "type": "biochemical", "details": "product inhibition; substrate pNPG; 100 mM citrate buffer, optimal pH and temperature (pH 5, 50°C); read-out: K i (mM) (against glucose)"}, "BGL3": {"molecular_target": "T2, BGL3 (Clavispora sp. NRRL Y-50464, UniProt A0A141S029)", "T2 construct": "C-terminal His tag, vector pPICZalphaB, expressed in Pichia X33; partially purified by Ni-NTA; GH3", "T2 sequence (A0A141S029 1-837)": "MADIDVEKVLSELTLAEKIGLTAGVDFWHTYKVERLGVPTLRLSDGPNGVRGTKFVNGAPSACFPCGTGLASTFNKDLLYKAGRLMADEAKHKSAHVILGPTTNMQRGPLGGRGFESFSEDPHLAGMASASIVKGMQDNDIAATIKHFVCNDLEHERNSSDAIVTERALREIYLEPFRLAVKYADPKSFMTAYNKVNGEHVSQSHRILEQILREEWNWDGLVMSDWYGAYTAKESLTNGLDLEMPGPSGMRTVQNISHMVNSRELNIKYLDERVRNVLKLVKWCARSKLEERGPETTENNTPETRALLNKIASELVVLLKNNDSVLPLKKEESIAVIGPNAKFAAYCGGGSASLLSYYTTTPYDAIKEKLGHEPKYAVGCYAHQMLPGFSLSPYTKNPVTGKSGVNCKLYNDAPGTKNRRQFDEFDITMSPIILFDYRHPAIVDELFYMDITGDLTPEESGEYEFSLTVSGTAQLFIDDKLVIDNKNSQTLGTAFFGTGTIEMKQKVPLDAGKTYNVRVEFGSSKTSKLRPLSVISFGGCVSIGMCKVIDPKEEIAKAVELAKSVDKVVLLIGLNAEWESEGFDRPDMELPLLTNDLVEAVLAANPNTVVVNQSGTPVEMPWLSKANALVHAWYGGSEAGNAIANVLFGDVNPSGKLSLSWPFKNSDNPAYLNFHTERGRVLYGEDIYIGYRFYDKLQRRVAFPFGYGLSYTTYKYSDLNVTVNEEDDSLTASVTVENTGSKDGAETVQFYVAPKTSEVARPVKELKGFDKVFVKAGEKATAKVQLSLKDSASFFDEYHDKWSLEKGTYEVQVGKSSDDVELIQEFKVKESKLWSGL", "test": "pNPG hydrolysis, absorbance at […] nm", "type": "biochemical", "details": "product inhibition; substrate pNPG; 100 mM citrate buffer, optimal pH and temperature (pH 5, 55°C); read-out: K i (mM) (against glucose)"}, "purified protein": {"substrate": "O=[N+]([O-])c1ccc(O[C@@H]2O[C@H](CO)[C@@H](O)[C@H](O)[C@H]2O)cc1", "test": "purified protein", "details": "100 mM citrate buffer"}},
  "data": [
    {"molecule": "OC[C@H]1OC(O)[C@H](O)[C@@H](O)[C@@H]1O", "note": "(stereo partly shown) [glucose]", "values": [
      {"measurement": "Ki", "setting": "BGL2", "result": "62 ± 2.49", "unit": "mM"},
      {"measurement": "Ki", "setting": "BGL3", "result": "38.3 ± 1.15", "unit": "mM"}
    ]},
    {"molecule": "B1", "values": [
      {"measurement": "Km", "setting": "purified protein", "result": "80 ± 10", "unit": "µM"},
      {"measurement": "Vmax", "setting": "purified protein", "result": 5.27, "unit": "µmol/min/mg"},
      {"measurement": "kcat", "setting": "purified protein", "result": 9.13, "unit": "s⁻¹"},
      {"measurement": "kcat/Km", "setting": "purified protein", "result": "114000 ± 1570", "unit": "M⁻¹ s⁻¹"}
    ]},
    {"molecule": "B2", "values": [
      {"measurement": "Km", "setting": "purified protein", "result": "180 ± 20", "unit": "µM"},
      {"measurement": "Vmax", "setting": "purified protein", "result": 1.63, "unit": "µmol/min/mg"},
      {"measurement": "kcat", "setting": "purified protein", "result": 1.4, "unit": "s⁻¹"},
      {"measurement": "kcat/Km", "setting": "purified protein", "result": 7710, "unit": "M⁻¹ s⁻¹"}
    ]}
  ]
}
